Test results reported in IntAct's records for PubMed 18388957.

B1: Inhibitor of growth protein 1 (Homo sapiens), Q9UK53-2 (parent)
chain: MLSPANGEQLHLVNYVEDYLDSIESLPFDLQRNVSLMREIDAKYQEILKELDECYERFSRETDGAQKRRMLHCVQRALIRSQELGDEKIQIVSQMVELVENRTRQVDSHVELFEAQQELGDTAGNSGKAGADRPKGEAAAQADKPNSKRSRRQRNNENRENASSNHDHDDGASGTPKEKKAKTSKKKKRSKAKAEREASPADLPIDPNEPTYCLCNQVSYGEMIGCDNDECPIEWFHFSCVGLNHKPKGKWYCPKCRGENEKTMDKALEKSKKERAYNR

Variants of: B1
Conditions: with nqo1_human NQO1, P15559

Variant	effect of a mutation on the interaction
MLSPANGEQLHLVNYVEDYLDSIESLPFDLQRNVSLMREIDAKYQEILKELDECYERFSRETDGAQKRRMLHCVQRALIRSQELGDEKIQIVSQMVELVENRTRQVDSHVELFEAQQELGDTAGNAGKAGADRPKGEAAAQADKPNSKRSRRQRNNENRENASSNHDHDDGASGTPKEKKAKTSKKKKRSKAKAEREASPADLPIDPNEPTYCLCNQVSYGEMIGCDNDECPIEWFHFSCVGLNHKPKGKWYCPKCRGENEKTMDKALEKSKKERAYNR [S126A]	disrupting interaction
